# According to article PMC9436389 (Frontiers in Immunology, 2022):
# How the values were obtained:
# [1] = target: EBOV GP[change] (unstabilised, ectodomain-only Ebola virus glycoprotein without mucin-like domain) (Ebola virus (Mayinga 1976 strain)) (UniProt Q05320); test: SEC
# [2] = target: NiV F[change] (recombinant NiV sF glycoprotein in its postfusion conformation) (Nipah virus); test: SEC
Substance,stoichiometry N [1],stoichiometry N [2]
"EBOV GP[change] (unstabilised, ectodomain-only Ebola virus glycoprotein without mucin-like domain) (from UniProt Q05320) (domain or fragment)",3,
NiV F[change] (recombinant NiV sF glycoprotein in its postfusion conformation) (domain or fragment),,3
